A short description of data set [1]: cell lysate anti-myc blot. Particulars: glycan lost; control: wild type.
Data set [2] is described as follows: in-gel HA digestion, alcian blue staining. Particulars: glycan lost; control: wild type.

B1: hyaluronidase1 (HYAL1): N99Q (protein)
parent chain: MAAHLLPICALFLTLLDMAQGFRGPLLPNRPFTTVWNANTQWCLERHGVDVDVSVFDVVANPGQTFRGPDMTIFYSSQLGTYPYYTPTGEPVFGGLPQNASLIAHLARTFQDILAAIPAPDFSGLAVIDWEAWRPRWAFNWDTKDIYRQRSRALVQAQHPDWPAPQVEAVAQDQFQGAARAWMAGTLQLGRALRPRGLWGFYGFPDCYNYDFLSPNYTGQCPSGIRAQNDQLGWLWGQSRALYPSIYMPAVLEGTGKSQMYVQHRVAEAFRVAVAAGDPNLPVLPYVQIFYDTTNHFLPLDELEHSLGESAAQGAAGVVLWVSWENTRTKESCQAIKEYMDTTLGPFILNVTSGALLCSQALCSGHGRCVRRTSHPKALLLLNPASFSIQLTPGGGPLSLRGALSLEDQAQMAVEFKCRCYPGWQAPWCERKSMW
Regarding B1, the expression_or_secretion entry in data set [1] was “decreases”.

B2: hyaluronidase1 (HYAL1): N350Q (protein)
parent chain: MAAHLLPICALFLTLLDMAQGFRGPLLPNRPFTTVWNANTQWCLERHGVDVDVSVFDVVANPGQTFRGPDMTIFYSSQLGTYPYYTPTGEPVFGGLPQNASLIAHLARTFQDILAAIPAPDFSGLAVIDWEAWRPRWAFNWDTKDIYRQRSRALVQAQHPDWPAPQVEAVAQDQFQGAARAWMAGTLQLGRALRPRGLWGFYGFPDCYNYDFLSPNYTGQCPSGIRAQNDQLGWLWGQSRALYPSIYMPAVLEGTGKSQMYVQHRVAEAFRVAVAAGDPNLPVLPYVQIFYDTTNHFLPLDELEHSLGESAAQGAAGVVLWVSWENTRTKESCQAIKEYMDTTLGPFILNVTSGALLCSQALCSGHGRCVRRTSHPKALLLLNPASFSIQLTPGGGPLSLRGALSLEDQAQMAVEFKCRCYPGWQAPWCERKSMW
In the case of B2, the enzymatic_activity result in data set [2] was “decreases”. Moreover, the expression_or_secretion entry in data set [1] is “decreases”.

B3: hyaluronidase1 (HYAL1): N216Q (protein)
parent chain: MAAHLLPICALFLTLLDMAQGFRGPLLPNRPFTTVWNANTQWCLERHGVDVDVSVFDVVANPGQTFRGPDMTIFYSSQLGTYPYYTPTGEPVFGGLPQNASLIAHLARTFQDILAAIPAPDFSGLAVIDWEAWRPRWAFNWDTKDIYRQRSRALVQAQHPDWPAPQVEAVAQDQFQGAARAWMAGTLQLGRALRPRGLWGFYGFPDCYNYDFLSPNYTGQCPSGIRAQNDQLGWLWGQSRALYPSIYMPAVLEGTGKSQMYVQHRVAEAFRVAVAAGDPNLPVLPYVQIFYDTTNHFLPLDELEHSLGESAAQGAAGVVLWVSWENTRTKESCQAIKEYMDTTLGPFILNVTSGALLCSQALCSGHGRCVRRTSHPKALLLLNPASFSIQLTPGGGPLSLRGALSLEDQAQMAVEFKCRCYPGWQAPWCERKSMW
Regarding B3, the enzymatic_activity result in data set [2] was “decreases”. Further, in data set [1], the expression_or_secretion entry is recorded as “decreases”.

(Values after article PMC4087149.)
